Reference: patent US20170173151A1 (Genmab, published 2017)

T1: HisCD74v1 (recombinant extracellular domain of human CD74 variant 1, N-terminal hexameric His tag) (human, UniProt P04233 73-296)
T1 construct: also called recombinant CD74v1; CD74v1 extracellular domain
T1 sequence: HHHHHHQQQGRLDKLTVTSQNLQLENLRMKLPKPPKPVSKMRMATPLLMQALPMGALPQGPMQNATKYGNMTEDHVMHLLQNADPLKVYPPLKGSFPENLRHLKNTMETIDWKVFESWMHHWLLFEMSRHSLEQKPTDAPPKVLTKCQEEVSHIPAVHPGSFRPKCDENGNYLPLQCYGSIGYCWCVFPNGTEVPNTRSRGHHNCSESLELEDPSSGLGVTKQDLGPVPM

T2: HisCD74v2 (recombinant extracellular domain of human CD74 variant 2, N-terminal hexameric His tag) (human, UniProt P04233 73-296)
T2 construct: also called recombinant CD74v2; CD74v2 extracellular domain
T2 sequence: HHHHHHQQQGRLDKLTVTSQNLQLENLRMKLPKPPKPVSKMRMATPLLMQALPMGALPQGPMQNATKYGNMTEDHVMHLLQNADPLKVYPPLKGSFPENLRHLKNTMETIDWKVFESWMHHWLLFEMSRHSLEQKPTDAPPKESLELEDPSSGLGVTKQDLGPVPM


Columns and labels:
[1] = target: human CD74, naturally expressed on cells (Raji, Daudi, M4A4, NCI-H747 cells; human tonsil tissue) (human) (UniProt P04233); test: FACS on Raji cells
[2] = target: human CD74, naturally expressed on cells (Raji, Daudi, M4A4, NCI-H747 cells; human tonsil tissue) (human) (UniProt P04233); test: cell-based or functional assay
[3] = target: human CD74, naturally expressed on cells (Raji, Daudi, M4A4, NCI-H747 cells; human tonsil tissue) (human) (UniProt P04233); test: FACS on Daudi cells; mean of three experiments
[4] = target: human CD74, naturally expressed on cells (Raji, Daudi, M4A4, NCI-H747 cells; human tonsil tissue) (human) (UniProt P04233); test: FACS on Daudi cells, 10 µg/mL; mean of three experiments
[5] = target: T1, HisCD74v1 (recombinant extracellular …); test: ELISA, coated recombinant CD74v1 extracellular domain
Procedure: (§1) ELISA plates (Greiner BioOne) were coated 0/N at 4° C. with 2 μg/mL, 100 μL per well, recombinant CD74v1 or CD74v2 in PBS (B. Braun Melsungen AG). Sequences and production of the isoforms were described supra. ELISA wells were washed three times with PBS containing 0.05% Tween-20 (PBST), emptied, and blocked with 1% (w/v) BSA fraction V (Roche) in PBS at RT for 1 h while shaking (300 rpm), and emptied. Subsequently, 100 μL anti-CD74 HuMab antibodies were added in serial dilutions in 0.2% (w/v) BSA fraction V in PBST (assay buffer) and incubated while shaking at RT for 90 min. ELISA plates were washed three times with PBST, emptied, and bound HuMab antibodies were detected using HRP-conjugated goat-anti human IgG (100 μL; 1:5,000; Peroxidase Affinipure Goat anti-human IgG, F(ab′)2 Fragment Specific [min X Bov,Hrs,Ms Sr Prot]; Jackson Immunoresearch) in assay buffer and incubated while shaking at RT for 90 min. Plates were washed three times with PBST, emptied, and incubated with 100 μL ABTS solution (50 ml ABTS buffer [Roche] and one ABTS tablet [50 mg; Roche]). After incubation in the dark at RT for 30 min, the reaction was stopped by addition of 100 μL per well oxalic acid (2% [w/v]). Plates were measured at OD 405 nm in an ELISA reader (Biotek Instruments, EL808 Absorbance Microplate Reader).
(§2) Isotype control Ab IgG1-b12 was used as a negative control. Binding curves were analyzed using non-linear regression (sigmoidal dose-response with variable slope) using GraphPad Prism 5 software (GraphPad Software, San Diego, Calif., USA).

[6] = target: T2, HisCD74v2 (recombinant extracellular …); test: ELISA, coated recombinant CD74v2 extracellular domain
Procedure: as §1, §2

[7] = target: human CD74, naturally expressed on cells (Raji, Daudi, M4A4, NCI-H747 cells; human tonsil tissue) (human) (UniProt P04233); test: FACS on Daudi cells at 0° C., Alexa-488-labeled antibody displaced by excess unlabeled antibody
[8] = target: T1, HisCD74v1 (recombinant extracellular …); test: ELISA, coated recombinant CD74v1 extracellular domain (CD74ECDHis); mean of four experiments
Procedure: ELISA plates (Greiner BioOne) were coated with 2 μg/mL, 100 μL per well, recombinant CD74ECDHis in PBS (B. Braun Melsungen AG) at 4° C., 0/N. ELISA plates were emptied and blocked with 200 μL/well PBS containing 0.05% Tween-20 (PBST) while shaking (300 rpm), at RT for 1 hour, washed three times with 300 μL PBST and emptied. Subsequently, 100 μL anti-CD74 ADCs or unconjugated CD74-specific HuMab antibodies were added in serial dilutions in PBST and incubated while shaking at RT for 2 hours. ELISA plates were washed with PBST and emptied. Bound anti-CD74 ADCs and unconjugated HuMab antibodies were detected by addition of HRP-conjugated mouse-anti human IgG1 (100 μL; 0.015 μg/mL; Sanquin; # M1328) in PBST and incubation while shaking, at RT for 2 hours. Plates were washed with PBST, emptied and incubated with 100 μL ABTS solution (50 ml ABTS buffer [Roche] and one ABTS tablet [50 mg; Roche]). After incubation in the dark while shaking, at RT for 30 min, the reaction was stopped by incubation with 100 μL per well oxalic acid (2% [w/v]; Riedel de Haen) in the dark while shaking, for 10 min. Plates were measured at OD 405 nm in an ELISA reader (Biotek Instruments, EL808 Absorbance Microplate Reader).
IgG1-b12, an antibody binding to a non-related antigen, was used as a negative control (both unconjugated as well as in ADC format). Binding curves were analyzed by non-linear regression (sigmoidal dose-response with variable slope) using GraphPad Prism 5 software (GraphPad Software, San Diego, Calif., USA).

Binder	EC50 [1]	% viability (minimal) of Raji cells, anti-kappa-ETA' assay [2]	EC50 of killing of Raji cells, anti-kappa-ETA' assay [2]	EC50 [3]	Maximal binding (MFI at 10 µg/mL) [4]	EC50 [5]	EC50 [6]	koff [7]	time until half of the bound labeled antibody was replaced [7]	EC50 [8]
HuMab-CD74-006 (antibody, human IgG1, V domains shown, Human IgG1,kappa antibody produced transiently in HEK-293F cells; also called antibody 006) VH: QVQLVESGGGVVQPGRSLRLSCAASGFTFSSYAMHWVRQAPGKGLEWVAVISYDGSIKYYADSVKGRFTISRDNSKNTLYLQMNSLRVEDTAVFYCARGREITSQNIVILLDYWGQGTLVTVTS VL: DIQMTQSPSSLSASVGDRVTITCRASQGISSWLAWYQQKPEKAPKSLIYAASSLQSGVPSRFSGSGSGTDFTLTISSLQPEDFATYYCQQYNSYPLTFGGGTKVEIK	0.196 µg/mL	1.5%	57 µg/mL	0.04 µg/mL	4600 MFI	0.321 µg/mL	0.21 µg/mL	0.004 s⁻¹	3 min	0.02 µg/mL
HuMab-CD74-011 (antibody, human IgG1, V domains shown, Human IgG1,kappa antibody produced transiently in HEK-293F cells; also called antibody 011) VH: QVQLVESGGGVVQPGRSLRLSCAASGFTFSSYGMHWVRQAPDKGLEWVAVIWYDGSNKYYADSVKGRFTISRDNSKNTLYLQMNSLRAEDTAVYYCARGGTLVRGAMYGTDVWGQGTTVTVSS VL: DIQMTQSPSSLSASVGDRVTITCRASQGISSWLAWYQQKPEKAPKSLIYAASSLQSGVPSRFSGSGSGTDFTLTISSLQPEDFATYYCQQYNSYPLTFGGGTKVEIK	0.151 µg/mL			0.05 µg/mL	5780 MFI	0.344 µg/mL	0.245 µg/mL	0.00117 s⁻¹	10 min	0.02 µg/mL
